The assay concerns the target P22 coat protein (CP) monomers (bacteriophage P22, UniProt P26747 1-430). The assay is described as follows: SEC. For orientation: Size exclusion chromatography separates by hydrodynamic size, large species first.

P22 coat protein (CP) monomers, sequence (P26747 whole entry): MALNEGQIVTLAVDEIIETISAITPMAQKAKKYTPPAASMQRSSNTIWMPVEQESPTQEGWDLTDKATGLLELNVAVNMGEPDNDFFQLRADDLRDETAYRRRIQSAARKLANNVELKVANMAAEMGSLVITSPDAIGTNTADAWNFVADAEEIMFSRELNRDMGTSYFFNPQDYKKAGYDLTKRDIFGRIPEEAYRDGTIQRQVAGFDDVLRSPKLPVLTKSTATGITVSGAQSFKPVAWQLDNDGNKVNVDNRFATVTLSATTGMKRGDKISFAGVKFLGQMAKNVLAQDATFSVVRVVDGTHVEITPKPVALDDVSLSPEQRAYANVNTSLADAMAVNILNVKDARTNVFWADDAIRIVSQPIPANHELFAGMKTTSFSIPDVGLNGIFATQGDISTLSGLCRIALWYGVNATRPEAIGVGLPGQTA

B1: P22 scaffolding protein (SP) (natural protein, bacteriophage P22, UniProt P26748 1-303, looked up)
chain: MEPTTEIQATEDLTLSGDHAAASADSLVVDNANDNAGQEEGFEIVLKDDETAPKQDPAKNAEFARRRIERKRQRELEQQMEAVKRGELPESLRVNPDLPPQPDINAYLSEEGLAKYDYDNSRALAAFNAANTEWLMKAQDARSNAVAEQGRKTQEFTQQSAQYVEAARKHYDAAEKLNIPDYQEKEDAFMQLVPPAVGADIMRLFPEKSAALMYHLGANPEKARQLLAMDGQSALIELTRLSERLTLKPRGKQISSAPPADQPITGDVSAANKDAIRKQMDAAASKGDVETYRKLKAKLKGIR
In the case of B1, the binding result is “binds”.

The record behind these values is article PMC5529062 (Science Advances, 2017).
